Reference: the supplement of paper PMC9233669
This sample holds only a part of the variants without activity.

Key:
[1] = system: biotinyl-Met-oxazolone; test: self-aminoacylation, catalytic enhancement (BMO) (fold over background); higher = more active; k-Seq, kA / k0A0; sequences stand for … in GGGAAUGGAUCCACAUCUACGAAUUC…UUCACUGCAGACUUGACGAAGCUG
Procedure, shortened: (§1)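 The uncatalyzed rate is the low-activity peak of a bimodal Gaussian fit, and catalytic enhancement is median kA divided by it. The kA values came from pseudo-first-order fits, with 1000 bootstraps, of per-sequence fraction reacted measured by streptavidin capture, triplicate qPCR and Illumina sequencing. Mutagenized RNA pools with a 21-nt variable region (0.43 μM) were reacted with each biotinyl-aminoacyl-oxazolone at 2–1250 μM in 50 μL HEPES/NaCl/KCl/MgCl2/CaCl2 buffer with 5% acetonitrile, pH 6.9–7.0, for 90 minutes at room temperature.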

[2] = system: biotinyl-Trp-oxazolone; test: self-aminoacylation, catalytic enhancement (BWO) (fold over background); higher = more active; k-Seq, kA / k0A0; sequences stand for … in GGGAAUGGAUCCACAUCUACGAAUUC…UUCACUGCAGACUUGACGAAGCUG
Procedure, shortened: as §1

[3] = system: biotinyl-Phe-oxazolone; test: self-aminoacylation, catalytic enhancement (BFO) (fold over background); higher = more active; k-Seq, kA / k0A0; sequences stand for … in GGGAAUGGAUCCACAUCUACGAAUUC…UUCACUGCAGACUUGACGAAGCUG
Procedure, shortened: as §1

[4] = system: biotinyl-Leu-oxazolone; test: self-aminoacylation, catalytic enhancement (BLO) (fold over background); higher = more active; k-Seq, kA / k0A0; sequences stand for … in GGGAAUGGAUCCACAUCUACGAAUUC…UUCACUGCAGACUUGACGAAGCUG
Procedure, shortened: as §1

[5] = system: biotinyl-Val-oxazolone; test: self-aminoacylation, catalytic enhancement (BVO) (fold over background); higher = more active; k-Seq, kA / k0A0; sequences stand for … in GGGAAUGGAUCCACAUCUACGAAUUC…UUCACUGCAGACUUGACGAAGCUG
Procedure, shortened: as §1

[6] = system: biotinyl-Ile-oxazolone; test: self-aminoacylation, catalytic enhancement (BIO) (fold over background); higher = more active; k-Seq, kA / k0A0; sequences stand for … in GGGAAUGGAUCCACAUCUACGAAUUC…UUCACUGCAGACUUGACGAAGCUG
Procedure, shortened: as §1

| Sequence | self-aminoacylation [1] | self-aminoacylation [2] | self-aminoacylation [3] | self-aminoacylation [4] | self-aminoacylation [5] | self-aminoacylation [6] |
| --- | --- | --- | --- | --- | --- | --- |
| CUACUUCAAACAACUGGUCUG [Fam1A.1 aminoacylation ribozyme variant] | 0.603 | 0.661 | 0.753 | 0.678 | 0.654 | 0.734 |
| CUACUUCAAACAAGCAGUCUG [Fam1A.1 aminoacylation ribozyme variant] | 0.751 | 0.577 | 1.06 | 0.794 | 0.775 | 0.882 |
| CUACUUCAAACAAGCGGUCUG [Fam1A.1 aminoacylation ribozyme variant] | 0.822 | 0.693 | 0.819 | 0.825 | 0.871 | 0.933 |
| CUACUUCAAACAAUAGUUCUG [Fam1A.1 aminoacylation ribozyme variant] | 0.53 | 0.325 | 0.553 | 0.532 | 0.511 | 0.624 |
| CUACUUCAAACAAUCAAUCUG [Fam1A.1 aminoacylation ribozyme variant] | 0.683 | 0.669 | 1.73 | 0.602 | 0.767 | 0.794 |
| CUACUUCAAACAAUCAGUCUA [Fam1A.1 aminoacylation ribozyme variant] | 0.841 | 5.04 | 15.7 | 0.776 | 0.9 | 0.871 |
| CUACUUCAAACAAUCAGUGUG [Fam1A.1 aminoacylation ribozyme variant] | 0.936 | 0.975 | 2.23 | 0.745 | 0.972 | 0.867 |
| CUACUUCAAACAAUCAGUUUG [Fam1A.1 aminoacylation ribozyme variant] | 0.779 | 6.56 | 15.7 | 0.861 | 0.73 | 0.803 |
| CUACUUCAAACAAUCCCUCUG [Fam1A.1 aminoacylation ribozyme variant] | 0.68 | 0.44 | 0.842 | 0.558 | 0.525 | 0.74 |
| CUACUUCAAACAAUCCGUAUG [Fam1A.1 aminoacylation ribozyme variant] | 0.65 | 0.715 | 0.759 | 0.769 | 0.81 | 0.723 |
| CUACUUCAAACAAUCCGUCUG [Fam1A.1 aminoacylation ribozyme variant] | 0.673 | 1.26 | 1.92 | 0.661 | 0.806 | 0.788 |
| CUACUUCAAACAAUCCGUUUG [Fam1A.1 aminoacylation ribozyme variant] | 0.594 | 0.87 | 0.704 | 0.674 | 0.77 | 0.694 |
| CUACUUCAAACAAUCGAUCUC [Fam1A.1 aminoacylation ribozyme variant] | 0.322 | 0.881 | 2.76 | 0.5 | 0.799 | 0.502 |
| CUACUUCAAACAAUCGGUACG [Fam1A.1 aminoacylation ribozyme variant] | 0.396 | 0.839 | 2.05 | 0.425 | 0.577 | 0.461 |
| CUACUUCAAACAAUCGGUAUA [Fam1A.1 aminoacylation ribozyme variant] | 0.607 | 0.725 | 1.24 | 0.661 | 0.688 | 0.772 |
| CUACUUCAAACAAUCGGUAUU [Fam1A.1 aminoacylation ribozyme variant] | 0.852 | 0.759 | 1.15 | 0.74 | 0.828 | 0.854 |
| CUACUUCAAACAAUCGGUUAG [Fam1A.1 aminoacylation ribozyme variant] | 0.591 | 1.46 | 2.89 | 0.493 | 0.614 | 0.706 |
| CUACUUCAAACAAUCGGUUCG [Fam1A.1 aminoacylation ribozyme variant] | 0.615 | 0.98 | 2.97 | 0.63 | 0.767 | 0.687 |
| CUACUUCAAACAAUCGGUUUG [Fam1A.1 aminoacylation ribozyme variant] | 1.08 | 23.9 | 43.4 | 1.54 | 1.1 | 1.07 |
| CUACUUCAAACAAUCUGUAUG [Fam1A.1 aminoacylation ribozyme variant] | 0.647 | 0.471 | 0.672 | 0.607 | 0.73 | 0.642 |
| CUACUUCAAACAAUGGGUGUG [Fam1A.1 aminoacylation ribozyme variant] | 1.32 | 0.947 | 0.967 | 1.34 | 1.08 | 1.29 |
| CUACUUCAAACAAUUCGUCUG [Fam1A.1 aminoacylation ribozyme variant] | 0.722 | 0.602 | 0.738 | 0.628 | 0.859 | 0.827 |
| CUACUUCAAACACUCGCUCUG [Fam1A.1 aminoacylation ribozyme variant] | 1.06 | 0.468 | 1.16 | 0.708 | 0.818 | 0.924 |
| CUACUUCAAACACUCGGUCUU [Fam1A.1 aminoacylation ribozyme variant] | 1.81 | 1.18 | 1.56 | 1.49 | 1.74 | 1.71 |
| CUACUUCAAACAGUCGGCCUG [Fam1A.1 aminoacylation ribozyme variant] | 1.77 | 1.39 | 2.1 | 1.78 | 1.71 | 1.63 |
| CUACUUCAAACAGUCGGUCUA [Fam1A.1 aminoacylation ribozyme variant] | 0.856 | 0.576 | 0.734 | 0.817 | 0.893 | 0.938 |
